Laboratory results as given in patent US20240425571A1 (OHIO STATE INNOVATION FOUNDATION, published 2024).

T1: human GARP (glycoprotein A repetitions predominant, LRRC32) on the cell surface (human, UniProt Q14392 20-662)
T1 construct: whole, on cells; also called hGARP; free GARP
T1 sequence (looked up): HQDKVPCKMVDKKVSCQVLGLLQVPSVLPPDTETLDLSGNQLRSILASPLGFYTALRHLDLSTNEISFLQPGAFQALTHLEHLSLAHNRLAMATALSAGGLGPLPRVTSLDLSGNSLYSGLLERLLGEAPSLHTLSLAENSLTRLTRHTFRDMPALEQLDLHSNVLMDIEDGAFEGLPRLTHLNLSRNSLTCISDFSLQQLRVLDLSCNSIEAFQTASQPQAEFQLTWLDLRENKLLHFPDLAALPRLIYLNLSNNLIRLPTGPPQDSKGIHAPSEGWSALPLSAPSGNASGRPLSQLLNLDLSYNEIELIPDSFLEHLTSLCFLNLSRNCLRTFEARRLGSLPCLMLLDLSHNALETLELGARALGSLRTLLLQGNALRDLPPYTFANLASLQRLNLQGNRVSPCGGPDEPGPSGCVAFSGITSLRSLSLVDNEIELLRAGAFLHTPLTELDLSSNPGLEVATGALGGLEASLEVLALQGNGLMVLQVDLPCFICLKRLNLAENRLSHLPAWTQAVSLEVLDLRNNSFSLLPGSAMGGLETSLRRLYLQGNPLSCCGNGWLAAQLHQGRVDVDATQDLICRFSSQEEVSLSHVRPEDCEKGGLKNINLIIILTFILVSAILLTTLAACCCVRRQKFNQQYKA

T2: human GARP (antigen, construct not stated) (human, UniProt Q14392 20-627, limits assumed)
T2 sequence (looked up): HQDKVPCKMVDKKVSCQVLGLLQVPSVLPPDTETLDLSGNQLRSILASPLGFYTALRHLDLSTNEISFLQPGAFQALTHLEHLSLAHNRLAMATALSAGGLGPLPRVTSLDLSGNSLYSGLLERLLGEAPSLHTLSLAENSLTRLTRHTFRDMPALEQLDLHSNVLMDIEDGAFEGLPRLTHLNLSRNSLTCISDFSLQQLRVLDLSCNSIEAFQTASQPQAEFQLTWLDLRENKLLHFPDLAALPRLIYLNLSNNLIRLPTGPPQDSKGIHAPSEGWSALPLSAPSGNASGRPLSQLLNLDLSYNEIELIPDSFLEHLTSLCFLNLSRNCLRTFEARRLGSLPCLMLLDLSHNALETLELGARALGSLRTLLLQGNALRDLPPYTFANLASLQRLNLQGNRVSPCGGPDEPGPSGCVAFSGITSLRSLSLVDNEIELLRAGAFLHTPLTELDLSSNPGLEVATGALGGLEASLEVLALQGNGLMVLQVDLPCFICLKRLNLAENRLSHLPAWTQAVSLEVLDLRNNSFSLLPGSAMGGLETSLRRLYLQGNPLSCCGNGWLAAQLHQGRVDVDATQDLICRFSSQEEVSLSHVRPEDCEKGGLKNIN


Key:
[1] = molecular target: T1, human GARP (glycoprotein A repetitions …); test: FACS, Ag(+) cells, 0 ug/ml antibody (blank)
[2] = molecular target: T1, human GARP (glycoprotein A repetitions …); test: FACS, Ag(+) cells, culture supernatant, 1 ug/ml
[3] = molecular target: T1, human GARP (glycoprotein A repetitions …); test: FACS, Ag(+) cells, culture supernatant, 5 ug/ml
[4] = molecular target: T1, human GARP (glycoprotein A repetitions …); test: FACS, Ag(+) cells, culture supernatant, 0.2 ug/ml
[5] = molecular target: T1, human GARP (glycoprotein A repetitions …); test: FACS, Ag(+) cells, supernatant heated 70 C 5 min, 5 ug/ml
[6] = molecular target: T1, human GARP (glycoprotein A repetitions …); test: FACS, Ag(+) cells, heated-sample series, 0 ug/ml antibody (blank)
[7] = molecular target: T2, human GARP (antigen, construct not …); test: Gator label-free kinetics, IgG on anti-human Fc probe, antigen 5 ug/ml
[8] = molecular target: T1, human GARP (glycoprotein A repetitions …); test: FACS, Ag(+) cells, supernatant heated 70 C 5 min, 1 ug/ml
[9] = molecular target: T1, human GARP (glycoprotein A repetitions …); test: FACS, Ag(+) cells, supernatant heated 70 C 5 min, 0.2 ug/ml

Row | MFI [1] [MFI] | MFI [2] [MFI] | MFI [3] [MFI] | MFI [4] [MFI] | MFI [5] [MFI] | MFI [6] [MFI] | Kd [7] [nM] | Req [7] | Response [7] | kobs [7] | MFI [8] [MFI] | MFI [9] [MFI] | Binder
1 | 9.91 | 25.8 | 26.4 | 23.9 | 26.2 | 9.91 | 8.05 | 0.743 | 0.737 | 0.0134 |  |  | huPIIO-1VH1VL1 (antibody, V domains shown, Humanized 4D3/PIIO-1 IgG made in Expi293 cells; also called H1L1; HuPIIO-1VH1/L1) VH: QVQLQESGPGLVKPSQTLSLTCTVSGYSITSDYAWNWIRQFPGNKLEWMGYISYSGSTSYTPSLKSRVTISRDTSKNHFSLKLSSVTAADTAVYYCAKSGGDYYGSSSYWYFDVWGQGTMVTVSS VL: DIVLTQSPSSLAVSLGERATMNCKSSQSLLNSRSQKNYLAWYQQKPGQPPKLLIYGASTRGSGVPDRFSGSGSGTDFTLTISSLQAEDVAVYYCQNDHSYPFTFGQGTKLEIKR
2 | 9.91 |  | 26.2 | 23.2 | 26.1 | 9.91 |  |  |  |  | 24.8 | 22.6 | huPIIO-1VH2VL2 (antibody, V domains shown, Humanized IgG from Expi293, tested as culture supernatant; also called H2L2; HuPIIO-1VH2/L2) VH: QVQLQESGPGLVKPSQTLSLTCTVSGYSITSDYAWNWIRQFPGNKLEWMGYISYSGSTSYTPSLKSRITISRDTSKNHFFLKLSSVTAADTAVYYCAKSGGDYYGSSSYWYFDVWGQGTMVTVSS VL: DIVLTQSPSSLAVSLGERVTMNCKSSQSLLNSRSQKNYLAWYQQKPGQPPKLLIYGASTRGSGVPDRFSGSGSGTDFTLTISSVQAEDVAVYYCQNDHSYPFTFGQGTKLEIKR
3 | 9.91 | 25.2 | 26.1 | 22.2 | 25.7 | 9.91 | 8.15 | 0.831 | 0.824 | 0.0133 |  | 21.8 | huPIIO-1VH1VL2 (antibody, V domains shown, Humanized IgG from Expi293; also called H1L2; HuPIIO-1VH1/L2) VH: QVQLQESGPGLVKPSQTLSLTCTVSGYSITSDYAWNWIRQFPGNKLEWMGYISYSGSTSYTPSLKSRVTISRDTSKNHFSLKLSSVTAADTAVYYCAKSGGDYYGSSSYWYFDVWGQGTMVTVSS VL: DIVLTQSPSSLAVSLGERVTMNCKSSQSLLNSRSQKNYLAWYQQKPGQPPKLLIYGASTRGSGVPDRFSGSGSGTDFTLTISSVQAEDVAVYYCQNDHSYPFTFGQGTKLEIKR
4 | 9.91 | 24.9 | 26.4 | 22.7 | 26.5 | 9.91 |  |  |  |  | 24.6 | 22.7 | huPIIO-1VH3VL2 (antibody, V domains shown, Humanized IgG from Expi293, tested as culture supernatant; also called H3L2) VH: DVQLQESGPGLVKPSQTLSLTCTVSGYSITSDYAWNWIRQFPGNKLEWMGYISYSGSTSYTPSLKSRITISRDTSKNHFFLKLSSVTAADTATYYCAKSGGDYYGSSSYWYFDVWGQGTTVTVSS VL: DIVLTQSPSSLAVSLGERVTMNCKSSQSLLNSRSQKNYLAWYQQKPGQPPKLLIYGASTRGSGVPDRFSGSGSGTDFTLTISSVQAEDVAVYYCQNDHSYPFTFGQGTKLEIKR
5 | 9.91 | 25.1 | 26.7 | 23.9 | 25.7 | 9.91 |  |  |  |  |  | 23.6 | huPIIO-1VH3VL1 (antibody, V domains shown, Humanized IgG from Expi293, tested as culture supernatant; also called H3L1; HuPIIO-1VH3/L1) VH: DVQLQESGPGLVKPSQTLSLTCTVSGYSITSDYAWNWIRQFPGNKLEWMGYISYSGSTSYTPSLKSRITISRDTSKNHFFLKLSSVTAADTATYYCAKSGGDYYGSSSYWYFDVWGQGTTVTVSS VL: DIVLTQSPSSLAVSLGERATMNCKSSQSLLNSRSQKNYLAWYQQKPGQPPKLLIYGASTRGSGVPDRFSGSGSGTDFTLTISSLQAEDVAVYYCQNDHSYPFTFGQGTKLEIKR
6 | 9.91 | 25.6 | 26.5 | 23.4 | 26.4 | 9.91 |  |  |  |  | 25.4 | 23.2 | huPIIO-1VH2VL3 (antibody, V domains shown, Humanized IgG from Expi293, tested as culture supernatant; also called H2L3; HuPIIO-1VH2/L3) VH: QVQLQESGPGLVKPSQTLSLTCTVSGYSITSDYAWNWIRQFPGNKLEWMGYISYSGSTSYTPSLKSRITISRDTSKNHFFLKLSSVTAADTAVYYCAKSGGDYYGSSSYWYFDVWGQGTMVTVSS VL: DIVLTQSPSSLAVSAGERVTMSCKSSQSLLNSRSQKNYLAWYQQKPGQPPKLLIYGASTRGSGVPDRFSGSGSGTDFTLTISSVQAEDVAVYYCQNDHSYPFTFGSGTKLEIKR
7 | 9.91 | 25.7 | 26.3 | 22.9 | 26.3 | 9.91 |  |  |  |  | 25.4 | 23 | huPIIO-1VH1VL3 (antibody, V domains shown, Humanized IgG from Expi293, tested as culture supernatant; also called H1L3; HuPIIO-1VH1/L3) VH: QVQLQESGPGLVKPSQTLSLTCTVSGYSITSDYAWNWIRQFPGNKLEWMGYISYSGSTSYTPSLKSRVTISRDTSKNHFSLKLSSVTAADTAVYYCAKSGGDYYGSSSYWYFDVWGQGTMVTVSS VL: DIVLTQSPSSLAVSAGERVTMSCKSSQSLLNSRSQKNYLAWYQQKPGQPPKLLIYGASTRGSGVPDRFSGSGSGTDFTLTISSVQAEDVAVYYCQNDHSYPFTFGSGTKLEIKR
8 | 9.91 |  | 26.8 | 23.3 | 26.2 | 9.91 | 8.03 | 0.71 | 0.703 | 0.0133 | 25.1 | 23 | huPIIO-1VH2VL1 (antibody, V domains shown, Humanized IgG from Expi293; also called H2L1; HuPIIO-1VH2/L1) VH: QVQLQESGPGLVKPSQTLSLTCTVSGYSITSDYAWNWIRQFPGNKLEWMGYISYSGSTSYTPSLKSRITISRDTSKNHFFLKLSSVTAADTAVYYCAKSGGDYYGSSSYWYFDVWGQGTMVTVSS VL: DIVLTQSPSSLAVSLGERATMNCKSSQSLLNSRSQKNYLAWYQQKPGQPPKLLIYGASTRGSGVPDRFSGSGSGTDFTLTISSLQAEDVAVYYCQNDHSYPFTFGQGTKLEIKR
9 | 9.91 | 25.3 | 26.2 | 21.9 | 25.8 | 9.91 |  |  |  |  | 24.6 | 22.1 | huPIIO-1VH3VL3 (antibody, V domains shown, Humanized IgG from Expi293, tested as culture supernatant; also called H3L3; HuPIIO-1VH3/L3) VH: DVQLQESGPGLVKPSQTLSLTCTVSGYSITSDYAWNWIRQFPGNKLEWMGYISYSGSTSYTPSLKSRITISRDTSKNHFFLKLSSVTAADTATYYCAKSGGDYYGSSSYWYFDVWGQGTTVTVSS VL: DIVLTQSPSSLAVSAGERVTMSCKSSQSLLNSRSQKNYLAWYQQKPGQPPKLLIYGASTRGSGVPDRFSGSGSGTDFTLTISSVQAEDVAVYYCQNDHSYPFTFGSGTKLEIKR
10 | 9.91 | 26.2 | 27.3 | 24.8 | 26.9 | 9.91 |  |  |  |  | 25.4 | 24.2 | huPIIO-1VH4VL1 (antibody, V domains shown, Humanized IgG from Expi293, tested as culture supernatant; also called H4L1; HuPIIO-1VH4/L1) VH: DVQLQESGPGLVKPSQTLSLTCTVSGYSITSDYAWNWIRQFPGNKLEWMGYISYSGSTSYTPSLKSRITISRDTSKNHFFLQLSSVTAEDTATYYCAKSGGDYYGSSSYWYFDVWGQGTTVTVSS VL: DIVLTQSPSSLAVSLGERATMNCKSSQSLLNSRSQKNYLAWYQQKPGQPPKLLIYGASTRGSGVPDRFSGSGSGTDFTLTISSLQAEDVAVYYCQNDHSYPFTFGQGTKLEIKR
